This data set has as its target T1, PUF4 RNA-binding domain (Saccharomyces cerevisiae, UniProt P25339 537-888).
T1 sequence: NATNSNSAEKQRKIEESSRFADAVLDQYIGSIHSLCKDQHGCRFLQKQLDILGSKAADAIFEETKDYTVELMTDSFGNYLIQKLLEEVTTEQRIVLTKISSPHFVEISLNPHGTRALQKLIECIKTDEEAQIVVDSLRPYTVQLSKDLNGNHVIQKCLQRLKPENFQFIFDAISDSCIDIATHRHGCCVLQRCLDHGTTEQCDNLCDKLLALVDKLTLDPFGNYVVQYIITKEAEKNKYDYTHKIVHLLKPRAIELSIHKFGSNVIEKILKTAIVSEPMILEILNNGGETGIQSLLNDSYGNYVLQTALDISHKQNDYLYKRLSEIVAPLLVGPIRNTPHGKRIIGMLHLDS
Briefly: Mg; RNA-MaP; 20 mM Na-HEPES pH 7.4, 30 mM KOAc, 0.75 mM MgCl2, 0.1% Tween-20, 5% glycerol, 0.1 mg/mL BSA, 2 mM DTT; 25 C; 0.0125-409.6 nM protein. As to conditions: tags: N-His6-TEV cleaved; C-SNAP kept, Cy3B-labelled; label: tethered on chip by stalled RNA polymerase.

Numbering of substitutions follows the chain as printed. Names may count otherwise.

A word on the Kd: it is the free concentration of one partner at which half of the binding sites on the other are occupied at equilibrium, for simple one-to-one binding. ACAAACAGUACAUAACAAAC (ssRNA) [Ib_S3_P3E.1_K3.1_C3.1_H3.1_[T1A]_A3.1_[T5C]_F3.1_T3.1] registered a dissociation constant Kd of more than 2300 nM. Then ACAAACUGCAUAUGACAAAC (ssRNA) [Ib_S3_P3E.1_K3.1_C3.1_H3.1_[T3C]_A3.1_F3.1_[A8G]_T3.1], with more than 2300 nM. For the molecule ACAAACCGUAUAUUACAAAC (ssRNA) [Ib_S3_P3E.1_K3.1_C3.1_H3.1_[T1C]_A3.1_F3.1_[A8T]_T3.1], the affinity, expressed as Kd, was 78.5 nM. Then ACAAACAGUAUAAAACAAAC (ssRNA) [Ib_S3_P3E.1_K3.1_C3.1_H3.1_[T1A]_A3.1_F3.1_[T7A]_T3.1], with more than 2300 nM; and ACAAACAGUAUUUAACAAAC (ssRNA) [Ib_S3_P3E.1_K3.1_C3.1_H3.1_[T1A]_A3.1_[A6T]_F3.1_T3.1], with more than 2300 nM; and ACAAACUGCAUAAAACAAAC (ssRNA) [Ib_S3_P3E.1_K3.1_C3.1_H3.1_[T3C]_A3.1_F3.1_[T7A]_T3.1], with more than 2300 nM. In turn, ACAAACUGCGUAUAACAAAC (ssRNA) [Ib_S3_P3E.1_K3.1_C3.1_H3.1_[T3C]_[A4G]_A3.1_F3.1_T3.1] displayed a Kd of more than 2300 nM.

In turn, ACAAACUGUCUACAACAAAC (ssRNA) [Ib_S3_P3E.1_K3.1_C3.1_H3.1_[A4C]_A3.1_F3.1_[T7C]_T3.1] came in with a Kd of more than 2300 nM. Molecule ACAAACCGUAUAGAACAAAC (ssRNA) [Ib_S3_P3E.1_K3.1_C3.1_H3.1_[T1C]_A3.1_F3.1_[T7G]_T3.1] yielded a Kd of more than 2300 nM.

ACAAACUGCAUAUUACAAAC (ssRNA) [Ib_S3_P3E.1_K3.1_C3.1_H3.1_[T3C]_A3.1_F3.1_[A8T]_T3.1]: the Kd came to 98.9 nM. With ACAAACUGUCUAGAACAAAC (ssRNA) [Ib_S3_P3E.1_K3.1_C3.1_H3.1_[A4C]_A3.1_F3.1_[T7G]_T3.1], the Kd was more than 2300 nM.

ACAAACUGAGUAUAACAAAC (ssRNA) [Ib_S3_P3E.1_K3.1_C3.1_H3.1_[T3A]_[A4G]_A3.1_F3.1_T3.1] gave a Kd of more than 2300 nM. With ACAAACUCUACAUAACAAAC (ssRNA) [Ib_S3_P3E.1_K3.1_C3.1_H3.1_[G2C]_A3.1_[T5C]_F3.1_T3.1], the Kd is more than 2300 nM.

Take ACAAACCGUAAAUAACAAAC (ssRNA) [Ib_S3_P3E.1_K3.1_C3.1_H3.1_[T1C]_A3.1_[T5A]_F3.1_T3.1]: the Kd is more than 2300 nM.

In turn, ACAAACCCUAUAUAACAAAC (ssRNA) [Ib_S3_P3E.1_K3.1_C3.1_H3.1_[T1C]_[G2C]_A3.1_F3.1_T3.1] registered a dissociation constant (Kd) of more than 2300 nM. In turn, ACAAACUCUAUAUUACAAAC (ssRNA) [Ib_S3_P3E.1_K3.1_C3.1_H3.1_[G2C]_A3.1_F3.1_[A8T]_T3.1] came in with a Kd of more than 2300 nM. ACAAACAGUAGAUAACAAAC (ssRNA) [Ib_S3_P3E.1_K3.1_C3.1_H3.1_[T1A]_A3.1_[T5G]_F3.1_T3.1]: the Kd was more than 2300 nM. Molecule ACAAACUGUCUAAAACAAAC (ssRNA) [Ib_S3_P3E.1_K3.1_C3.1_H3.1_[A4C]_A3.1_F3.1_[T7A]_T3.1] yielded a Kd of more than 2300 nM.

Turning to ACAAACGGUACAUAACAAAC (ssRNA) [Ib_S3_P3E.1_K3.1_C3.1_H3.1_[T1G]_A3.1_[T5C]_F3.1_T3.1], the Kd was more than 2300 nM. ACAAACCUUAUAUAACAAAC (ssRNA) [Ib_S3_P3E.1_K3.1_C3.1_H3.1_[T1C]_[G2T]_A3.1_F3.1_T3.1] came in with a Kd of more than 2300 nM.

With ACAAACGGUAUCUAACAAAC (ssRNA) [Ib_S3_P3E.1_K3.1_C3.1_H3.1_[T1G]_A3.1_[A6C]_F3.1_T3.1], the Kd is more than 2300 nM. The molecule ACAAACUCUAGAUAACAAAC (ssRNA) [Ib_S3_P3E.1_K3.1_C3.1_H3.1_[G2C]_A3.1_[T5G]_F3.1_T3.1] gave a Kd of more than 2300 nM. Then ACAAACUUUAUAUUACAAAC (ssRNA) [Ib_S3_P3E.1_K3.1_C3.1_H3.1_[G2T]_A3.1_F3.1_[A8T]_T3.1], with 704 nM; and ACAAACCGUCUAUAACAAAC (ssRNA) [Ib_S3_P3E.1_K3.1_C3.1_H3.1_[T1C]_[A4C]_A3.1_F3.1_T3.1], with more than 2300 nM; and ACAAACUGUCUAUUACAAAC (ssRNA) [Ib_S3_P3E.1_K3.1_C3.1_H3.1_[A4C]_A3.1_F3.1_[A8T]_T3.1], with 116 nM.

B1: Ib_S2_P5E.1_K5.1_C5.1_H5.1_[A4C]_A5.1_[T6A]_F5.1_T5.1 (ssRNA)
RNA: UUUGAUUAAUAUGAUAUCGUUCUUUCUUGUCUAAUUAUUCUUUCUCGAUAUCAUAUUAAUCUUU
B1 showed a Kd of 28.1 nM.

B2: Ib_S2_P5E.1_K5.1_C5.1_H5.1_[A4G]_A5.1_[A7T]_F5.1_T5.1 (ssRNA)
RNA: B1 RNA with C31G, A33U, A34U
The molecule B2 returned a Kd of 10.3 nM.

B3: Ia_S2_P5E.1_K5.1_C5.1_H5.1_A5.1_[T5G]_F5.1_T5.1 (ssRNA)
RNA: B1 RNA with C31A, U32G, A33U
The molecule B3 displayed a Kd of 6.34 nM.

B4: Ia_S2_P5E.1_K5.1_C5.1_H5.1_[A4T]_A5.1_F5.1_T5.1 (ssRNA)
RNA: B1 RNA with C31U, A33U
As to B4, binding was characterised by a dissociation constant (Kd) of 11.5 nM.

B5: Ib_S2_P5E.1_K5.1_C5.1_H5.1_A5.1_[T6G]_[A7T]_F5.1_T5.1 (ssRNA)
RNA: B1 RNA with C31A, A33G, A34U
The molecule B5 returned an equilibrium dissociation constant (Kd) of 6.35 nM.

B6: Ia_S2_P5E.1_K5.1_C5.1_H5.1_[A4G]_A5.1_F5.1_T5.1 (ssRNA)
RNA: B1 RNA with C31G, A33U
For the molecule B6, binding was characterised by a dissociation constant (Kd) of 12.9 nM.

B7: Ib_S2_P5E.1_K5.1_C5.1_H5.1_A5.1_[T5G]_[A7G]_F5.1_T5.1 (ssRNA)
RNA: B1 RNA with C31A, U32G, A33U, A34G
Take B7: the Kd was found to be 9.14 nM.

B8: Ic_S2_P5E.1_K5.1_C5.1_H5.1_A5.1_[T5A]_[A7G]_F5.1_T5.1 (ssRNA)
RNA: B1 RNA with C31A, U32A, A33U, A34G
On to B8, for which binding was put at a Kd of 13.1 nM.

B9: Ib_S2_P5E.1_K5.1_C5.1_H5.1_A5.1_[T5C]_[T6A]_F5.1_T5.1 (ssRNA)
RNA: B1 RNA with C31A, U32C
B9 had a dissociation constant Kd of 1.95 nM.

B10: Ia_S2_P5E.1_K5.1_C5.1_H5.1_[G2A]_A5.1_F5.1_T5.1 (ssRNA)
RNA: B1 RNA with G29A, C31A, A33U
The molecule B10 showed a Kd of 267 nM.

B11: Ib_S2_P5E.1_K5.1_C5.1_H5.1_A5.1_[T5G]_[A7C]_F5.1_T5.1 (ssRNA)
RNA: B1 RNA with C31A, U32G, A33U, A34C
The molecule B11 displayed a Kd of 9.58 nM.

B12: Ib_S2_P5E.1_K5.1_C5.1_H5.1_[A4T]_A5.1_[T6C]_F5.1_T5.1 (ssRNA)
RNA: B1 RNA with C31U, A33C
The molecule B12 yielded a Kd of 8.06 nM.

B13: Ib_S2_P5E.1_K5.1_C5.1_H5.1_[A4C]_A5.1_[A7T]_F5.1_T5.1 (ssRNA)
RNA: B1 RNA with A33U, A34U
Molecule B13 came in with a Kd of 24.4 nM.

B14: Ib_S2_P5E.1_K5.1_C5.1_H5.1_A5.1_[T5C]_[A7T]_F5.1_T5.1 (ssRNA)
RNA: B1 RNA with C31A, U32C, A33U, A34U
B14 registered a Kd of 1.36 nM.

B15: Ic_S2_P5E.1_K5.1_C5.1_H5.1_A5.1_[T6G]_[A7C]_F5.1_T5.1 (ssRNA)
RNA: B1 RNA with C31A, A33G, A34C
The molecule B15 registered a Kd of 6.06 nM.

B16: Ib_S2_P5E.1_K5.1_C5.1_H5.1_[A4C]_A5.1_[A7C]_F5.1_T5.1 (ssRNA)
RNA: B1 RNA with A33U, A34C
On to B16, for which the affinity, expressed as Kd, was 94.3 nM.

B17: Ib_S2_P5E.1_K5.1_C5.1_H5.1_[A4T]_A5.1_[T6A]_F5.1_T5.1 (ssRNA)
RNA: B1 RNA with C31U
Molecule B17 displayed a dissociation constant Kd of 28.9 nM.

B18: Ib_S2_P5E.1_K5.1_C5.1_H5.1_A5.1_[T5C]_[A7C]_F5.1_T5.1 (ssRNA)
RNA: B1 RNA with C31A, U32C, A33U, A34C
Turning to B18, the Kd stood at 2.13 nM.

ACAAACUGCUUAUAACAAAC (ssRNA) [Ib_S3_P3E.1_K3.1_C3.1_H3.1_[T3C]_[A4T]_A3.1_F3.1_T3.1]: the Kd was more than 2300 nM.
